Results taken from IntAct's records for PubMed 30073165.

B1: Cannabinoid receptor 1 (Homo sapiens), P21554 (parent)
chain: MKSILDGLADTTFRTITTDLLYVGSNDIQYEDIKGDMASKLGYFPQKFPLTSFRGSPFQEKMTAGDNPQLVPADQVNITEFYNKSLSSFKENEENIQCGENFMDIECFMVLNPSQQLAIAVLSLTLGTFTVLENLLVLCVILHSRSLRCRPSYHFIGSLAVADLLGSVIFVYSFIDFHVFHRKDSRNVFLFKLGGVTASFTASVGSLFLTAIDRYISIHRPLAYKRIVTRPKAVVAFCLMWTIAIVIAVLPLLGWNCEKLQSVCSDIFPHIDETYLMFWIGVTSVLLLFIVYAYMYILWKAHSHAVRMIQRGTQKSIIIHTSEDGKVQVTRPDQARMDIRLAKTLVLILVVLIICWGPLLAIMVYDVFGKMNKLIKTVFAFCSMLCLLNSTVNPIIYALRSKDLRHAFRSMFPSCEGTAQPLDNSMGDSDCLHKHANNAASVHRAAESCIKSTVKIAKVTMSVSTDTSAEAL
partner: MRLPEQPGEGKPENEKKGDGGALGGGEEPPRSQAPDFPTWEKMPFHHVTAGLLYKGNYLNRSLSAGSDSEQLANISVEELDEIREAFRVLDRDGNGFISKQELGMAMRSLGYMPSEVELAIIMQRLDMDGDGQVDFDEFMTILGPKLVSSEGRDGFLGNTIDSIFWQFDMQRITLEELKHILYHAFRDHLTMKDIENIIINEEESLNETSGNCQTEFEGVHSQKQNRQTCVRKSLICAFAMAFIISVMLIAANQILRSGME

Variants of: B1
Details: with cabp8_human CALN1, Q9BXU9

Row | effect of a mutation on the interaction | Variant
1 | disrupting interaction strength | MKSILDGLADTTFRTITTDLLYVGSNDIQYEDIKGDMASKLGYFPQKFPLTSFRGSPFQEKMTAGDNPQLVPADQVNITEFYNKSLSSFKENEENIQCGENFMDIECFMVLNPSQQLAIAVLSLTLGTFTVLENLLVLCVILHSRSLRCRPSYHFIGSLAVADLLGSVIFVYSFIDFHVFHRKDSRNVFLFKLGGVTASFTASVGSLFLTAIDRYISIHRPLAYKRIVTRPKAVVAFCLMWTIAIVIAVLPLLGWNCEKLQSVCSDIFPHIDETYLMFWIGVTSVLLLFIVYAYMYILWKAHSHAVRMIQRGTQKSIIIHAAEDGKVQVTRPDQARMDIRLAKTLVLILVVLIICWGPLLAIMVYDVFGKMNKLIKTVFAFCSMLCLLNSTVNPIIYALRSKDLRHAFRSMFPSCEGTAQPLDNSMGDSDCLHKHANNAASVHRAAESCIKSTVKIAKVTMSVSTDTSAEAL [T321A;S322A]
